Laboratory results reported in the supplement of paper PMC9170038.

Test system: MS2 coat protein
Test: apparent KD of MS2 coat protein; higher = weaker reporter binding
Settings: Eterna round: R107
Method: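 RNA-MaP round R107: designed RNA switches with theophylline, tryptophan, arginine or FMN aptamers are transcribed on-chip within common flanks. They are titrated with SNAP-549-labelled MS2 coat protein in RNA-MaP buffer (100 mM Tris pH 7.5, 80 mM KCl, 4 mM MgCl2), without ligand or with the indicated ligand. Median apparent KD per design.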

[1] = input ligand: theophylline 20 uM
[2] = input ligand: tryptophan 2.4 mM
[3] = input ligand: theophylline 2 mM

| Sequence | apparent KD of MS2 coat protein (input ligand: arginine 13.2 mM) [µM] | apparent KD of MS2 coat protein [1] [µM] | apparent KD of MS2 coat protein [2] [µM] | apparent KD of MS2 coat protein (input ligand: none) [µM] | apparent KD of MS2 coat protein [3] [µM] |
| --- | --- | --- | --- | --- | --- |
| AACCAUCUCGGCGAUACCAGUGCCUACGAGUACAUGAGGAUCACCCAUGUAGGUGACCGACACCCUUGGCAGCGCGAUUGAGUCA [theeternabot_sameState_MS2_Theo_B_45] | 0.0709 | 0.184 | 0.129 | – | – |
| AACGUGAACGUGGUAUACCCGUGUGCCGAAGGAGCGCCCGUAAGGGCAGGUAGGUCGCGGUCGACAUGAGGAUCACCCAUGUUUG | 0.0395 | 0.0842 | 0.0816 | 0.0746 | 0.106 |
| AACUGGAUCAGUGAUACCAGAGACAUGAGGAUCACCCAUGUACAUGAGGAUCACCCAUGUCUCCCUUGGCAGCACAGCAGGGAGC [Exclusion Theophylline B GF 17] | 0.0328 | 0.0703 | 0.0641 | 0.07 | 0.442 |
| AACUGGGUUCGUGAUACCAGCUCACACAUGAGGAUCACCCAUGUAGUGGGUAAAAUGUGGAGCCCUUGGCAGCACUGUGACCACG [Esria] | 0.0146 | 0.0254 | 0.0144 | – | – |
| AAGAAGUUUUGAUUUUUAUGAAGUAGUGAUACCAGUUAAGAAAGAGACCCUUGGCAGCGCAACAUGAGGAUCACCCAUGUAAGAA [Another radom design] | 0.0189 | 0.0211 | 0.0219 | 0.0173 | 0.0197 |
| AAGACAUGAGGAUCACCCAUGUCGUCAACACGAGGACCGGUACGGCCGCCACUCGCAUGCCAAUGAGCGCAUGCGGCCUGGGUAU [Exclusion Tryp A GF4] | 0.00877 | 0.018 | 0.0343 | 0.0148 | 0.0138 |
| AAGACGGUCGGAAGGAGCGGUACAUGAGGAUCACCCAUGUAUUCCUGGGCAUCCGUAGUGUGCCAGGUAGGUCGCCGAUUGCGGG [XArg-B13] | 0.0403 | 0.0917 | 0.0409 | 0.0379 | 0.0972 |
| AAGAGUUGACAAAAGUCAGCUCAAACCGAAGGAGCGGGAGAAAUCCCAGGUAGGUCGCGGUUACAUGAGGAUCACCCAUGUUCCU [ArgAS 6 #BothOrNeither #OpenEnded] | 0.0681 | 0.376 | 0.273 | 0.355 | 0.3 |
| AAGAUACUCUGAAGGAGCGUCAUAAAACAUGAGGAUCACCCAUGUGCGCGGGUGUAAUUAUGACAGGUAGGUCGCAGAGUAUUUA [Arg B SS t2] | 0.424 | 0.515 | 0.442 | 0.179 | 0.601 |
| AAUAAACAUGAGGAUCACCCAUGUAUGGAAGGAGCGGUGAAUAAACCAGGUAGGUCGCCAGUGUGAGGGUCAUCUAUGUAAUAAA [Exclusion - Arginine A (Freestyle 2)] | 0.0684 | 0.0431 | 0.0379 | 0.0427 | 0.0562 |
| AAUAACAUGAGGAUCACCCAUGUAAAAGAUACCAGAGUGAUGAUCCUCCCUUGGCAGCUUAAUAACGCUAUUGAUUACAAUAGCG [Mat - Same State Theophlline A - Mod of Eli - D6] | 0.0335 | 0.0987 | 0.0372 | – | – |
| AAUAAUAGGUGAUCUUAAGUCGUACCGUAACGAGGACCGGUACGGCCGCCACUCGAACAUGAGGAUCACCCAUGUAUGUAUGAUA [whbob_SS_trypto A_f5] | 0.0447 | 0.242 | 0.0807 | 0.168 | 0.3 |
| AAUAUAUAUCACGAACUGUGGUGUAUGUUCCGAGGACCGGUACGGCCGCCACUCGCGUGGUUCCACAUGAGGAUCACCCAUGUUG [XTryp A #8] | 0.0173 | 0.0294 | 0.0225 | 0.0168 | 0.0232 |
| AAUGUCGGAUCGGCCGCCACUGGUUGGCCCUGUGUACAUGAGGAUCACCCAUGUCCAUCCCAAACCAGGACCGGGAUCUUUAUGU [Xeananor] | 0.0379 | 0.0517 | – | – | 0.0404 |
| AAUUAUCAGUCGGCCGCCACUGACACAUGAGGAUCACCCAUGUAACUUGGGUUAAAUUUACUGAACAGGACCGGGACAAAGGCUA [JR_ExcTryptoB_Sub009] | 0.114 | 0.193 | – | – | 0.203 |
| ACAAGAGGGAUGGAUACCAGCGACAUGAGGAUCACCCAUGUAUGAGGAUCAGCCAUGUUAUGCCCUUGGCAGCCACGAAGAUCAG [XXXMULLIN] | 0.0271 | 0.0328 | 0.0216 | 0.0251 | 0.104 |
| ACAAGGACAUGAGGAUCACCCAUGUGGGAAGGAGCGCAUAAAUAUGCAGGUAGGUCGCCCGGCGUGAUAUUUAAUAUUUUAAUAA [Exclusion - Arginine A] | 0.034 | 0.0794 | 0.0602 | 0.0557 | 0.0735 |
| ACACAAUACAUGAGGAUCACCCAUGUAUAACGAGGACCGGUACGGCCGCCACUCGAAUACUGUAAUCCUCGGAAUAUUAUGUGAA [JR_ExcTryptA_Sub003] | 0.0329 | 0.0567 | – | – | 0.0605 |
| ACACGGCAUGAUGGAUCACCUCGUGAAUCACGAGGACCGGUACGGCCGCCACUCGAAAACCGUGACCUGUACGAAAAGUGCAGGA | 0.036 | 0.254 | 0.0388 | 0.053 | 0.758 |
| ACAUGAGGAUCACCCAUGUAAAUAACGGAAGGAGCGUGCAAAAGCACAGGUAGGUCGCCGAUAUAAAUAUUGGGUAUUAUAUUUU [AstrosExyArgA#3] | 0.0304 | 0.0403 | 0.0296 | 0.0304 | 0.0317 |

| Sequence | apparent KD of MS2 coat protein (input ligand: arginine 13.2 mM) [µM] | apparent KD of MS2 coat protein [1] [µM] | apparent KD of MS2 coat protein [2] [µM] | apparent KD of MS2 coat protein (input ligand: none) [µM] | apparent KD of MS2 coat protein [3] [µM] |
| --- | --- | --- | --- | --- | --- |
| ACAUGAGGAUCACCCAUGUAACGUCUUGAUACCAGACGAGAAGUAGUCCCUUGGCAGCAAAUACGUGAGGGUCACACAUGUGUAA [vvvmullin] | 0.0138 | 0.0344 | 0.0221 | – | – |
| ACAUGAGGAUCACCCAUGUAAUCAUCAGAAGGAGCGUGGAAUAACACAGGUAGGUCGCUGAUGUUAUGUUAAAAUGGUUCGUGAA [JR_ExcArginiA_Sub002] | 0.0188 | 0.0237 | 0.0225 | 0.0191 | 0.0173 |
| ACAUGAGGAUCACCCAUGUACAUGAGGGAAGGAGCGGUACAUGAGCCAGGUAGGUCGCCCAUGAGCAUCAGCCAUGUACAUCAGC [vv,mmullin] | 0.0409 | 0.0976 | 0.0757 | 0.115 | 0.101 |
| ACAUGAGGAUCACCCAUGUACGGUAUCAAUCGAGGACCGGUACGGCCGCCACUCGGAAAUAGAAGCGAUUAUUAGUGUUCUUUGU [Same State - Tryptophan A / A] | 0.0161 | 0.019 | – | – | 0.0166 |
| ACAUGAGGAUCACCCAUGUAUUACCGGGAAGGAGCGCGUAAGGACGCAGGUAGGUCGCUCGGCGUCCGGCCGCAAGGCUGGACGA [#1 Same State - Arginine A Attempt #17 (HarryS)] | 0.0123 | 0.0181 | 0.0152 | 0.0163 | 0.0164 |
| ACAUGAGGAUCACCCAUGUGAAGCAGGGUACGAGGACCGGUACGGCCGCCACUCGAGCAUUAUACCGAGUGAAUGGCAACGAUGU [whbob_Ex_trypto A_2s17] | 0.0144 | 0.019 | – | – | 0.0211 |
| ACAUGAGGAUCACCCAUGUGAAGCAGGGUACGAGGACCGGUACGGCCGCCACUCGAGGAUUAUACCGAGUGAAUGGCAACGAUGU [whbob_Ex_trypto A_2s18] | 0.0132 | 0.0218 | 0.0152 | 0.0141 | 0.0178 |
| ACAUGAGGAUCACCCAUGUGCCGUCUUGAUACCAGACGCGAAGUAGUCCCUUGGCAGCAACUACGUGACGGUCGCGCAUGUGUAG [bcxmullin] | 0.0178 | 0.0214 | 0.0161 | – | – |
| ACAUGAGGAUCACCCAUGUGUGUAAAUCCUCGAGGACCGGUACGGCCGCCACUCGAACGAGUGUAAGUUGAAUGUAACAUUCAAC [SS Trp A v1] | 0.0473 | 0.123 | – | – | 0.104 |
| ACAUGAGGAUCACCCAUGUGUGUAAGUCCUCGAGGACCGGUACGGCCGCCACUCGAACGAGUGUAACAUACUUGUUACAAGUAUG [SS Trp A s3] | 0.0185 | 0.0399 | – | – | 0.0433 |
| ACAUGAGGAUCACCCAUGUUCAUGCGGGAAGGAGCGUGCGGAAGCACAGGUAGGUCGCCCUCAAUAUCUAACGUUACGUUCAUGA [#26 Same State - Arginine A] | 0.0137 | 0.0184 | 0.0155 | 0.0143 | 0.0144 |
| ACAUGAGGAUCACCCAUGUUCCUCGCCGAUACCAGUGAAGAAUUACGCCCUUGGCAGCGGAAUGAGUGUUUUGGAGAUGAGGUAC [6.aB] | 0.0844 | 0.112 | 0.081 | – | – |
| ACAUGAGGAUCACCCAUGUUGAGCACAGAAGGAGCGUGAUUAAGCACAGGUAGGUCGCUGUACUUAUCGAGCGUUAGCUCGAUAC [JR_Nu_SSArginiA_Sub030] | 0.021 | 0.0326 | 0.0228 | 0.0223 | 0.0283 |
| ACAUGAGGAUCACCCAUGUUUGUUGUUCCUCGAGGACCGGUACGGCCGCCACUCGAACGAGUGGCACGCGAGUGCGCACUCGCGU [aPa] | 0.0139 | 0.0196 | 0.013 | – | 0.0131 |
| ACAUGUCUUAUAGAUACCAGACAGGACAUGAGGAUCACCCAUGUAAUGUAUACAUGCAGAGUCCCUUGGCAGCUAAGGUCAUAGA [#26 Same State - Theophylline B] | 0.0546 | 0.11 | 0.0928 | – | – |
| ACAUUAGUUGGCGAUACCAGCUAUAGGCCUUCUGGGCGACAUGAGGAUCACCCAUGUGAUGGCCCUUGGCAGCGCUGAUUGAUGU [SSTheo B #29] | 0.0656 | 0.167 | 0.182 | – | – |
| ACAUUGCGCACGGCCGCCACUGGCUAUAGAUUUAUAGCAUUAAUGAACAUGAGGAUCACCCAUGUCAGGACCGGGUGCGAACCAU [SSTryp B #9] | 0.014 | 0.0227 | – | – | 0.0276 |
| ACCAGCACACAUGAUACCAGCGACAUGAGGAUCACCCAUGUACGGCGUGUAUCGAAAGGUUGCCCUUGGCAGCAUGAUAGUGCUA [Ratiarla] | 0.0145 | 0.0282 | 0.0128 | – | – |
| ACCGCAUCCGUAUAGGAUGCGGGCCAUGAAGGAGCGUGGGAAACCACAGGUAGGUCGCAUGGGUUACAUGAGGAUCACCCAUGUG [Jaws] | 0.0264 | 0.517 | 0.534 | 0.166 | 0.585 |
